Assay results reported in PMC9687312.

Assays:
[1] = target: DC-SIGN Biot-ECD (biotinylated extracellular domain of DC-SIGN) (UniProt Q9NNX6); test: SPR
[2] = target: MGL Biot-ECD (biotinylated extracellular domain of MGL) (UniProt Q8IUN9); test: SPR
Sequence of UniProt Q8IUN9 (Q8IUN9 61-316): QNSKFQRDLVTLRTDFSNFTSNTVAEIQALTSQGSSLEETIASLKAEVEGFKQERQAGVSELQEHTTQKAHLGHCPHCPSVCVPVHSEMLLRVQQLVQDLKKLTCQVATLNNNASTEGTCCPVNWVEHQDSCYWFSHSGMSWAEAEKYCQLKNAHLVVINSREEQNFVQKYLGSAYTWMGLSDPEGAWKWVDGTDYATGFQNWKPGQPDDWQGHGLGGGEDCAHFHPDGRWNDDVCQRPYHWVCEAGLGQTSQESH

Sequence of UniProt Q9NNX6 (Q9NNX6 59-404): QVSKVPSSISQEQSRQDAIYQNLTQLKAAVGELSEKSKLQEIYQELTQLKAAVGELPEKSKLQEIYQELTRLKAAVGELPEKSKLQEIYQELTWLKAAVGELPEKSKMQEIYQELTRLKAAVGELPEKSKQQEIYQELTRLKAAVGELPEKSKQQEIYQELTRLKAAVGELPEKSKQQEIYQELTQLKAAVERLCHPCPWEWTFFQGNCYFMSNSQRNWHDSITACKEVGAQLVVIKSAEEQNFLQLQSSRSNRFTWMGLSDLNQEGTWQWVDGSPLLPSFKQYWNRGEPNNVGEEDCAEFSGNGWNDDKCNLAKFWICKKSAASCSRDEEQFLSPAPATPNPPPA

ADD KGE RBD (ADD-KGE/RBD-SC covalent complex) (from UniProt Q2Y0H9 1-544; P0DTC2 320-554)
Kd [1]: 0.34 nM | Kd [2]: 66.1 nM
